Experiments:
Settings in all cases: reference: Flag-PKM2 wild type; sites Y105
IQGAP1 [1] = target: IQGAP1 (UniProt P46940); experiment: anti-Flag IP, LC-MS/MS
IQGAP1 [2] = target: IQGAP1 (UniProt P46940); experiment: anti-Flag co-IP, IQGAP1 blot
TSG101 = TSG101 (UniProt Q99816); experiment: anti-Flag co-IP, TSG101 blot

Measured: binding against the reference

PKM2 (pyruvate kinase M2) (from UniProt P14618) Flag-PKM2 Y105F
lost: all assays above
